Test results reported in patent publication US5175251A, “Antimetastatic peptides with laminin activity” (SRI International, priority 1991, dated 1992).

Assays:
[1] = system: B16/F10 cells (murine melanoma); test: Cell adhesion assay: tumor cells bound to peptide-coated wells; assay type: cell-based; conditions: summary of Table 1
Procedure: The cell-adhesion assay measures the binding of tumor cells to laminin immobilized on the surface of a culture dish. The peptides of the invention can be substituted for the immobilized laminin to measure the binding constants of the peptides and compare binding constants of the peptides of the invention with laminin or other known laminin peptides. In this assay, solubilized peptides are incubated on tissue culture well plates and nonspecific cell binding is blocked by the addition of bovine serum albumin (BSA). Tumor cells are added to the wells and nonadherent cells are removed by washing with phosphate-buffered saline (PBS). Attached cells may be trypsinized and counted electronically or the cells may be fixed, stained with chemical agents, such as crystal violet solution and the optical density of the solutions determined using a microtiter plate reader in the range from 590-405 nm. Extrapolation of OD to the number of cells bound may be obtained by comparison of readings to a standard curve obtained by incubating various numbers of cells in tissue culture wells for a time sufficient to allow firm attachment but not permit significant cell division (about 5 h), and washing and staining as above. […]

Isoelectric point = assay type: physicochemical
Excerpt: The anion exchange resin is usually employed in the form of a packed column. The column is equilibrated using conventional techniques and the solution of the cleaved reaction products is loaded onto the column. […] The peptide is eluted by increasing the ionic strength of the buffered solution, typically from 0 to 0.75M NaCl. The column can be regenerated by washing with solutions of NaOH and nonionic detergents to remove any residual contaminating protein or solubilizing agents and equilibrating the column.
For example, when the laminin B1 peptide is fused to CTAP-III(Leu21), an anion exchange column (for example, either Mono-Q or Q Sepharose from Pharmacia) may be employed to separate the two proteins on the basis of differences in their isoelectric points (LamB1 -40(Ser27) peptide=3.65, CTAP-III=7.8). […] Elution of the peptide may be performed with a linear gradient (0 to 0.5M) of NaCl. Pooled fractions of LamB1 -40, typically greater than 90% pure, may optionally be subjected to further purification using hydrophobic interaction chromatography (HIC), gel filtration chromatography, reverse-phase liquid chromatography or combinations thereof.

NH2 -Pro-Cys-Pro-Asp-Gly-Pro-Asp-Ser-Gly-Arg-Gln-Phe-Ala-Arg-Ser-Cys-Tyr -Gln-Asp-Pro-Val-Thr-Leu-Gln-Leu-Ala-Ser-Val-Cys-Asp-Pro-Gly-Tyr-Ile-Gly-Ser-Arg-Cys-Asp-Asp-OH (H-PCPDGPDSGRQFARSCYQDPVTLQLASVCDPGYIGSRCDD-OH; cysteine pairing not given here) [LamB1 -40(Ser27), recombinant 40 amino acid laminin B1 peptide, Cys at position 923 replaced with serine]
Binding of metastatic tumor cells compared with YIGSR or CDPGYIGSR [1]: binds metastatic tumor cells more effectively
isoelectric point (pI) (Isoelectric point): 3.65

B1: CTAP-III: naturally occurring polypeptide isolated from human platelets that is capable of activating connective tissue cells (protein, UniProt P02775 44-128, looked up)
Connective tissue-activating …: NLAKGKEESLDSDLYAELRCMCIKTTSGIHPKNIQSLEVIGKGTHCNQVEVIATLKDGRKICLDPDAPRIKKIVQKKLAGDESAD
modifications: Connective tissue-activating peptide III
isoelectric point (pI) (Isoelectric point): 7.8
